The values that follow are results of earlier work, collected in PMC3135726.

The target in series [1] is PTHrP (Homo sapiens) (UniProt P12272).
Series [2] has as its target Importin-α IBB (Homo sapiens) (UniProt P52292).
For series [3], the target named is Snurportin1 IBB (Homo sapiens) (UniProt O95149).
Series [4] has as its target hnRNP M PY-NLS (Homo sapiens) (UniProt P52272).
In series [5] the target is hnRNP A1 PY-NLS (Homo sapiens) (UniProt P09651).
Chain of hnRNP A1 PY-NLS (Homo sapiens) (P09651 320-357): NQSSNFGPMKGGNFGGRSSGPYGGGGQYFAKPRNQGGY

Chain of Importin-β (Q14974 whole entry): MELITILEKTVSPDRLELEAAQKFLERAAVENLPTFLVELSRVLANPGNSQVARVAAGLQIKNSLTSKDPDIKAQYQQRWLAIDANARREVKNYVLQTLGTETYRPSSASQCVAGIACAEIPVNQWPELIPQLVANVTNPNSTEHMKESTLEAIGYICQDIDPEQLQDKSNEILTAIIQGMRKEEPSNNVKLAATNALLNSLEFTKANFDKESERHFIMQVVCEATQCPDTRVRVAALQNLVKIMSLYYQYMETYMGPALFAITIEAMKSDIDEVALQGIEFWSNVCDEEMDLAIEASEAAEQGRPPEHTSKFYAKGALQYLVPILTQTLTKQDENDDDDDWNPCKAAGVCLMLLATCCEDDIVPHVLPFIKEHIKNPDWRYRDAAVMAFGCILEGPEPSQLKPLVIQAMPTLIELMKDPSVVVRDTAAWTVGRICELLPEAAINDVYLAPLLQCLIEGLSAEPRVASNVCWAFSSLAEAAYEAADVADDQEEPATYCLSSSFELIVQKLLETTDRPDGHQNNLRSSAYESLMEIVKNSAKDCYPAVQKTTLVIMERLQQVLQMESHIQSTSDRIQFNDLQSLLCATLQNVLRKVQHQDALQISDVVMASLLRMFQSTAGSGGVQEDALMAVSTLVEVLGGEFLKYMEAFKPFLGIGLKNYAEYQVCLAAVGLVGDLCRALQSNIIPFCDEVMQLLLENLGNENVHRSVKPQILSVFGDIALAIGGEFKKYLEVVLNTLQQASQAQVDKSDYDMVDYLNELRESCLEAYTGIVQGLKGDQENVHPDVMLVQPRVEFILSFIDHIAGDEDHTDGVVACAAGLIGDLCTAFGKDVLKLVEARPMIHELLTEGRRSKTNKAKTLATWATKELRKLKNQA
Chain of Kapβ2 (Q92973 whole entry): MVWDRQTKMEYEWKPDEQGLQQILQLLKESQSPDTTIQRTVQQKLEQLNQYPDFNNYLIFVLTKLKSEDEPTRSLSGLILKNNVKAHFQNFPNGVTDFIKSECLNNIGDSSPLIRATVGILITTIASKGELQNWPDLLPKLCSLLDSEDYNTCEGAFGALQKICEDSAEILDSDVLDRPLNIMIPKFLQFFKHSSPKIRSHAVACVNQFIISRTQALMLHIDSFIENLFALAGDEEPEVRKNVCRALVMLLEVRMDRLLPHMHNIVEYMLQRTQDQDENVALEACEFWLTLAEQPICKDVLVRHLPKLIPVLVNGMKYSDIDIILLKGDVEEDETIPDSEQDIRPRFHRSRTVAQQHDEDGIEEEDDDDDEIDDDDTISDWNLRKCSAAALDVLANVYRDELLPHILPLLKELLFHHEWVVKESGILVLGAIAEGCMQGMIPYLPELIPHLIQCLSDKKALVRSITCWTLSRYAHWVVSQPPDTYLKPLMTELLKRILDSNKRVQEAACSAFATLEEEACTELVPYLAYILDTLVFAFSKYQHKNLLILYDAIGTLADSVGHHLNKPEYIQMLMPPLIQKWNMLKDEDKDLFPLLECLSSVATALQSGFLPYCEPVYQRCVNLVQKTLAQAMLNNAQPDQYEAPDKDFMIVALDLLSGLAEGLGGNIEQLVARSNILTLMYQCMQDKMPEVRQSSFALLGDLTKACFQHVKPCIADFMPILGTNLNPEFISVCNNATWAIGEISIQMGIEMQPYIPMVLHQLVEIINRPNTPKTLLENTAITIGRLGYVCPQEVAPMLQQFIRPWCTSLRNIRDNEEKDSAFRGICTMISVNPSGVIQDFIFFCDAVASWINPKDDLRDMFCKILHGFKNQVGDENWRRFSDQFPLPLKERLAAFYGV
Chain of Snurportin1 IBB (Homo sapiens) (O95149 8-76): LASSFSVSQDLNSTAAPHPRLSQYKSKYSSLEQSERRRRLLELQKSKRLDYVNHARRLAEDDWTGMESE
Chain of PTHrP (Homo sapiens) (P12272 37-72): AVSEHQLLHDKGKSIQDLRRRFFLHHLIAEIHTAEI
Chain of hnRNP M PY-NLS (Homo sapiens) (P52272 41-70): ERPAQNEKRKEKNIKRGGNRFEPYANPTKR

The Kd is the constant that tells how readily two partners part at equilibrium. As to Importin-β (from UniProt Q14974), the Kd in series [1], in series [2] and in series [3] was 2 nM in each case.

Turning to Kapβ2 (from UniProt Q92973), the results for the dissociation constant Kd in series [4] and in series [5] were 10 nM and 42 nM, respectively.
